Target: MBP-OsMYC2 (rice, UniProt Q336P5 1-699)
Test: SPR

MBP-OsMYC2, sequence (Q336P5 whole entry): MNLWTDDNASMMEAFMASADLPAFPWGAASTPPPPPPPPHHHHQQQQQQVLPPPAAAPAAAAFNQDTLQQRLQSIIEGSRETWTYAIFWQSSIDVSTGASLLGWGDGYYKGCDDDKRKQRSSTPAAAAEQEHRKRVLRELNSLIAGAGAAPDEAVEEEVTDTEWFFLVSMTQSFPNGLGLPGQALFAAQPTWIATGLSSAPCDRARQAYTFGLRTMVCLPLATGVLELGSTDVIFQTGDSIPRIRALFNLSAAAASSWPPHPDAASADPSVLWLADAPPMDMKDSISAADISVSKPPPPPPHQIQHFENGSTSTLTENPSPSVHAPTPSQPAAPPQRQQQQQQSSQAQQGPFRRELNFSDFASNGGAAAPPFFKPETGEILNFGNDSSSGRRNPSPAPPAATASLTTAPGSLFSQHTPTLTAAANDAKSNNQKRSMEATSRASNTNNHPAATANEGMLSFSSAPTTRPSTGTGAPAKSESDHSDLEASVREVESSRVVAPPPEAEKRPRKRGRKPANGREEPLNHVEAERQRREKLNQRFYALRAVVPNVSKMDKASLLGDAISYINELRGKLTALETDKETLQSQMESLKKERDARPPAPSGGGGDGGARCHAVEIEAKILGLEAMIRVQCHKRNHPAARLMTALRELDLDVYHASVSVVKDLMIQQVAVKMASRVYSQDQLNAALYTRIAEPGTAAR

B1: GST-OsGSK2 (enzyme)
chain: MDQPAPAPEPMLLDAQPPAAVACDKKQQEGEAPYAEGNDAVTGHIISTTIGGKNGEPKRTISYMAERVVGTGSFGIVFQAKCLETGETVAIKKVLQDRRYKNRELQLMRAMDHPNVISLKHCFFSTTSRDELFLNLVMEYVPETLYRVLKHYSNANHRMPLIYVKLYMYQLFRGLAYIHTVPGVCHRDVKPQNVLVDPLTHQVKLCDFGSAKTLVPGEPNISYICSRYYRAPELIFGATEYTTSIDIWSAGCVLAELLLGQPLFPGESAVDQLVEIIKVLGTPTREEIRCMNPNYTEFRFPQIKAHPWHKVFHKRMPPEAIDLASRLLQYSPSLRCTALDACAHPFFDELREPNARLPNGRPFPPLFNFKHELANSSQELISRLIPEHVRRQATHNFFNTGS
**Q.** With B1 as the binder, how does the Kd read?
**A.** 40.4 nM

— paper PMC7485985 (2020)
